Measurements taken from the RNAGym collection of RNA variant scans (doi:10.1101/gr.219683.116).

B1: mRNA-splicing (parent)
chain: AGUUGCUGCUGGGAGCUCCAGCACAGUGAAAUGGACAGAAGGGCAGAGCAA

Variants of: B1
Assay: exon inclusion enrichment index; higher = more inclusion; WT1 exon 5 minigene, HEK293

First: AGUUAUAUAUGGGAGCUCCAGCACAGUGAAAUGGACAUAAGGGCAGAGCAA
Second: AGUUACCACCGGGAGCUCCAGCACAGUGAAGCGGACAGAAGGGCAGAGCAA
The “exon inclusion enrichment index” value of the first is lower: 0.0207 for the first, 4.44 for the second.

Compared with AGUUCGCGCCGGGAGCUCCAGCACAGUGAAAUGGACAAGAGGGCAGAGCAA, AGUUCACACAGGGAGCUCCAGCACAGUGAAAUGGACAGAAGGGCACGGCAA is lower in “exon inclusion enrichment index” value: 2.72 for the first, 0.199 for the second.

First: AGUUCGCGCCGGGAGCUAAAGCACAGUGAAAUGGACAGAAGGGCAGAGCAA
Second: AGUUACCACCGGGAGCUCCAGCACAGUGAAAAUGACAGAAGGGCAGAGCAA
The “exon inclusion enrichment index” value of the first is lower: 1.63 for the first, 1.68 for the second.

First: AGUUGAAGAAGGGAUUUCCAGCACAGUGAAAUGGACAGAAGGGCAGAGCAA
Second: AGUUUCUUUUGGGAGCUCCAGCACAGUGACCUGGACAGAAGGGCAGAGCAA
The “exon inclusion enrichment index” value of the first is higher: 0.36 for the first, 0.347 for the second.

First: AGUUAUAUAUGGGAGCUCCAGCAUAGUGAAAUGGACAGAAGGGCAGAGCAA
Second: AGUUCUUCUCGGGAGCUCCAGCACAGUGAAAUGGACAGAAGGGCGUAGCAA
The “exon inclusion enrichment index” value of the first is lower: 0.00831 for the first, 1.68 for the second.

Compared with AGUUAUAUAUGGCUGCUCCAGCACAGUGAAAUGGACAGAAGGGCAGAGCAA, AGUUAUAUAUCGGAGCUCCAGCACAGUGAAAUGGACAGAAGGGCAGAGCAA is higher in “exon inclusion enrichment index” value: 0.0623 for the first, 0.191 for the second.

First: AGUUGCGGACGGGAGCUCCAGCACAGUGAAAUGGACAGAAGGGCAGAGCAA
Second: AGCGUCUUUUGGGAGCUCCAGCACAGUGAAAUGGACAGAAGGGCAGAGCAA
The “exon inclusion enrichment index” value of the first is higher: 2 for the first, 0.61 for the second.

Going from AGUUUCUUUUGGGAGCUCCAGCACAGUGAAAUGGACAGAACAGCAGAGCAA to AGUGCCCACCGGGAGCUCCAGCACAGUGAAAUGGACAGAAGGGCAGAGCAA, the “exon inclusion enrichment index” value rises from 0.229 to 1.75.

Going from AGUUUCUUUUGGGAGCUCCAGCACAGUGAAAUGGACAGUAGGGCAGAGCAA to AGUUCUUCUCGGGAGCUCCAGCACAGUACAAUGGACAGAAGGGCAGAGCAA, the “exon inclusion enrichment index” value rises from 0.00188 to 1.12.

Going from AGUUAUAUAUGGGAGCUCCAGCACUGUGAAAUGGACAGAAGGGCAGAGCAA to AGGCAUAUAUGGGAGCUCCAGCACAGUGAAAUGGACAGAAGGGCAGAGCAA, the “exon inclusion enrichment index” value falls from 0.138 to 0.122.

Compared with AGUUCACACAGGGAGCUCCAGCACAGUCUAAUGGACAGAAGGGCAGAGCAA, AGUUGCUGCUGGGAGCUCCAGCAAAGUGAAAUGGACAGAAGGGCAGAGCAA is higher in “exon inclusion enrichment index” value: 0.0485 for the first, 0.223 for the second.

First: AGUUGAAGAAGGGAGCUCCAGAUCAGUGAAAUGGACAGAAGGGCAGAGCAA
Second: AGUUUCUUUUGAUAGCUCCAGCACAGUGAAAUGGACAGAAGGGCAGAGCAA
The “exon inclusion enrichment index” value of the first is higher: 0.354 for the first, 0.000463 for the second.

Compared with AGUUCGCGCCGGGAGCUCCAGCACAGUGAAAUGGACAGAAAAGCAGAGCAA, AGUUCACACAGGGAGCUCCAGCACAGUGGUAUGGACAGAAGGGCAGAGCAA is lower in “exon inclusion enrichment index” value: 2.54 for the first, 0.0104 for the second.

Compared with AGUUAUAUAUGGGAGCUCCAGCACAGUGAAAUGGACCUAAGGGCAGAGCAA, AGUUAUAUAUGGGAGCUCCAGCACAGUGAAAUGGACAGAAGGGGGGAGCAA is lower in “exon inclusion enrichment index” value: 0.00922 for the first, 0.0089 for the second.

First: AGUUACCACCGGGAGAACCAGCACAGUGAAAUGGACAGAAGGGCAGAGCAA
Second: AGUUGACGACGGGAGCUCCAGCACAGUACAAUGGACAGAAGGGCAGAGCAA
The “exon inclusion enrichment index” value of the first is lower: 2.05 for the first, 2.55 for the second.

Going from AGUUCGCGCCGGGAGCUCCAGCACAGUGAAAUGGACAUGAGGGCAGAGCAA to AGUUAGGGAUGGGAGCUUUAGCACAGUGAAAUGGACAGAAGGGCAGAGCAA, the “exon inclusion enrichment index” value falls from 2.02 to 0.00102.

First: AGUUAUAUAUGGGAGCUCCAGCACAGUGAAAUGGACAGAAGGGCGGAGCAA
Second: AGUUACCACCGGGAGCUCCAGCACAGUGAAAUGGACAGAAGGCAAGAGCAA
The “exon inclusion enrichment index” value of the first is lower: 0.212 for the first, 3.61 for the second.

Going from AGUUCACACAGGGAGCUCCAGCACAGUGAAAUUUACAGAAGGGCAGAGCAA to AGUCCGCGCCGGGAGCUCCAGCACAGUGAAAUGGACAGAAGGGCAGAGCAA, the “exon inclusion enrichment index” value rises from 0.00723 to 3.81.

Going from AGUUAGGGAUGGUAGCUCCAGCACAGUGAAAUGGACAGAAGGGCAGAGCAA to AGUUCUUCUCGGGAGCCUCAGCACAGUGAAAUGGACAGAAGGGCAGAGCAA, the “exon inclusion enrichment index” value rises from 0.000555 to 1.9.

First: AGUUAUAUAUGGGAGUGCCAGCACAGUGAAAUGGACAGAAGGGCAGAGCAA
Second: AGUUGAAGAAGGGAGCUCCAGCACAGUGAAAUGGACAUCAGGGCAGAGCAA
The “exon inclusion enrichment index” value of the first is lower: 0.0217 for the first, 0.692 for the second.

Compared with AGUUAGGGAUGGGAGCUCCAGCACAGUGAAAUGGACAGAAGGACAGAGCAA, AGUUCACAGGGGGAGCUCCAGCACAGUGAAAUGGACAGAAGGGCAGAGCAA is higher in “exon inclusion enrichment index” value: 0.00629 for the first, 0.11 for the second.

Going from AGUUAGGGAUGGGAGCUCCAGCACAGUGAAAUGGACUCAAGGGCAGAGCAA to AGUUAUAUAUGGGAGCUCCAGCACAGUGAAAUGGACGCAAGGGCAGAGCAA, the “exon inclusion enrichment index” value rises from 0.00236 to 0.113.

First: AGUUAGGGAUGGGAGCUCCAGCACAGUGAAAUGGACAGAAGGGAUGAGCAA
Second: AGUUGAAGAAGGGAGCUCCAGCACAACGAAAUGGACAGAAGGGCAGAGCAA
The “exon inclusion enrichment index” value of the first is lower: 0.0154 for the first, 2.37 for the second.

Going from AGUUCGCGCCGGGAGCUCCAGCGCAGUGAAAUGGACAGAAGGGCAGAGCAA to AGUUCGCGCCGGGAGCUCCAGCACAGUCUAAUGGACAGAAGGGCAGAGCAA, the “exon inclusion enrichment index” value falls from 3.57 to 2.35.

First: AGUUCGCGCCGGGAGCUCCAGCACAGUGAAAUCGACAGAAGGGCAGAGCAA
Second: AGUUAGGGAUGGGAGCUCCAGCACAGUGAAAUGGACAGAAGGGGCGAGCAA
The “exon inclusion enrichment index” value of the first is higher: 3.55 for the first, 0.00471 for the second.

With AGUUGAAUUAGGGAGCUCCAGCACAGUGAAAUGGACAGAAGGGCAGAGCAA the “exon inclusion enrichment index” value was 0.00366.
